Laboratory results reported in patent US20240261333A1, “NOVEL TARGETS FOR ENHANCING ANTI-TUMOR IMMUNITY” (THE BROAD INSTITUTE, INC., priority 2021, published 2024).

Legend:
[1] = target: FABP5 (UniProt Q01469); assay: co-IP with anti-FLAG, mass spectrometry; C-FLAG B3GNT2
[2] = target: HBA1 (UniProt P69905); assay: as above
[3] = target: PCMT1 (UniProt P22061); assay: as above
[4] = target: RCC2 (UniProt Q9P258); assay: as above
[5] = target: RPL31 (UniProt P62899); assay: as above
[6] = target: RPL36 (UniProt Q9Y3U8); assay: as above
[7] = target: RPL36A (UniProt P83881); assay: as above
[8] = target: RPN1 (UniProt P04843); assay: as above
[9] = target: SSR1 (UniProt P43307); assay: as above
[10] = target: STRAP (UniProt Q9Y3F4); assay: as above
[11] = target: TPI1 (UniProt P60174); assay: as above
[12] = target: YBX3 (UniProt P16989); assay: as above
[13] = target: ABCD1 (human) (UniProt P33897); assay: anti-FLAG co-IP from lysate of C-FLAG B3GNT2 cells, mass spectrometry
[14] = target: ACSL3 (human) (UniProt O95573); assay: as above
[15] = target: ATAD3A (human) (UniProt Q9NVI7); assay: as above
[16] = target: DNAJA3 (human) (UniProt Q96EY1); assay: as above
[17] = target: EEF2 (human) (UniProt P13639); assay: as above
[18] = target: H1FX (human) (UniProt Q92522); assay: as above
[19] = target: HSP90AB1 (human) (UniProt P08238); assay: as above
[20] = target: IFI16 (human) (UniProt Q16666); assay: as above
[21] = target: KPNB1 (human) (UniProt Q14974); assay: as above
[22] = target: KTN1 (human) (UniProt Q86UP2); assay: as above
[23] = target: LARP4 (human) (UniProt Q71RC2); assay: as above
[24] = target: LDHA (human) (UniProt P00338); assay: as above
[25] = target: NTPCR (human) (UniProt Q9BSD7); assay: as above
[26] = target: PDIA4 (human) (UniProt P13667); assay: as above
[27] = target: PGAM5 (human) (UniProt Q96HS1); assay: as above
[28] = target: PSMB6 (human) (UniProt P28072); assay: as above
[29] = target: PXN (human) (UniProt P49023); assay: as above
[30] = target: RCN1 (human) (UniProt Q15293); assay: as above
[31] = target: RPL15 (human) (UniProt P61313); assay: as above
[32] = target: RPL34 (human) (UniProt P49207); assay: as above
[33] = target: RPS6 (human) (UniProt P62753); assay: as above
[34] = target: SFXN3 (human) (UniProt Q9BWM7); assay: as above
[35] = target: SLC25A22 (human) (UniProt Q9H936); assay: as above
[36] = target: TECR (human) (UniProt Q9NZ01); assay: as above
[37] = target: TRAFD1 (human) (UniProt O14545); assay: as above
[38] = target: TUBA1C (human) (UniProt Q9BQE3); assay: as above
[39] = target: ZRANB2 (human) (UniProt O95218); assay: as above

RCN1 (human), sequence (Q15293 30-331 limits assumed): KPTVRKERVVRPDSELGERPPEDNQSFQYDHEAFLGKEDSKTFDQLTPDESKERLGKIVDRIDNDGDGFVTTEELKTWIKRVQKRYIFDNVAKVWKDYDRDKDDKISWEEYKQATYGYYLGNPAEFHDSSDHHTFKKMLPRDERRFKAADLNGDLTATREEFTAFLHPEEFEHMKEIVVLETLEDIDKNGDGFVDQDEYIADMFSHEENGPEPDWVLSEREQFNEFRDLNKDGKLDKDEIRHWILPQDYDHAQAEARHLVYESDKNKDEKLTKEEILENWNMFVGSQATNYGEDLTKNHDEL
HBA1, sequence (P69905 2-142 limits assumed): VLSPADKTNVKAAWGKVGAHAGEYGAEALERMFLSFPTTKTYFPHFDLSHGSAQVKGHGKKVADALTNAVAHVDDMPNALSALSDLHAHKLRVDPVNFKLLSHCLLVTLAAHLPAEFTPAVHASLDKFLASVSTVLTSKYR
PGAM5 (human), sequence (Q96HS1 whole entry): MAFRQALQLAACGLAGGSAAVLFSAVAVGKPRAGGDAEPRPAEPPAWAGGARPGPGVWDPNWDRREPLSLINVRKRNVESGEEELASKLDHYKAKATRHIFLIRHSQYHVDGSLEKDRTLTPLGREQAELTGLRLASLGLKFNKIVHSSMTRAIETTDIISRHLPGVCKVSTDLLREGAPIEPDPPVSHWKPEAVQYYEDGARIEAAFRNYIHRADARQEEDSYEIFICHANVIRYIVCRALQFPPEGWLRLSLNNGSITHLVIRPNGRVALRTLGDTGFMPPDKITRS
TPI1, sequence (P60174 2-249 limits assumed): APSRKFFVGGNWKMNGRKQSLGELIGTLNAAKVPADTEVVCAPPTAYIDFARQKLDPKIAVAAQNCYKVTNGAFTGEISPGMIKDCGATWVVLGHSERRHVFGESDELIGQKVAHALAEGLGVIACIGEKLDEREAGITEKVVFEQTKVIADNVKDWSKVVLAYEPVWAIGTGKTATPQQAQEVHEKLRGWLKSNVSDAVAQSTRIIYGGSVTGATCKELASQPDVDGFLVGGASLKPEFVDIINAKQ
SLC25A22 (human), sequence (Q9H936 whole entry): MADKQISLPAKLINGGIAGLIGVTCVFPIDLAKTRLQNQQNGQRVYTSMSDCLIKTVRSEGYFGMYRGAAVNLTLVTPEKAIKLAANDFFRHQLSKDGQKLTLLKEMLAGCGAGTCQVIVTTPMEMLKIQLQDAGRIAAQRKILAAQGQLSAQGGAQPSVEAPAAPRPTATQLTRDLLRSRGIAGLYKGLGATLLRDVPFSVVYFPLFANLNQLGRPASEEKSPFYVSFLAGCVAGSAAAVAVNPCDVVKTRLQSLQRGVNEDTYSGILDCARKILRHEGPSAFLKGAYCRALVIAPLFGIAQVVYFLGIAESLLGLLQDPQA
IFI16 (human), sequence (Q16666 other isoform, or with tags, fused parts or gaps limits assumed): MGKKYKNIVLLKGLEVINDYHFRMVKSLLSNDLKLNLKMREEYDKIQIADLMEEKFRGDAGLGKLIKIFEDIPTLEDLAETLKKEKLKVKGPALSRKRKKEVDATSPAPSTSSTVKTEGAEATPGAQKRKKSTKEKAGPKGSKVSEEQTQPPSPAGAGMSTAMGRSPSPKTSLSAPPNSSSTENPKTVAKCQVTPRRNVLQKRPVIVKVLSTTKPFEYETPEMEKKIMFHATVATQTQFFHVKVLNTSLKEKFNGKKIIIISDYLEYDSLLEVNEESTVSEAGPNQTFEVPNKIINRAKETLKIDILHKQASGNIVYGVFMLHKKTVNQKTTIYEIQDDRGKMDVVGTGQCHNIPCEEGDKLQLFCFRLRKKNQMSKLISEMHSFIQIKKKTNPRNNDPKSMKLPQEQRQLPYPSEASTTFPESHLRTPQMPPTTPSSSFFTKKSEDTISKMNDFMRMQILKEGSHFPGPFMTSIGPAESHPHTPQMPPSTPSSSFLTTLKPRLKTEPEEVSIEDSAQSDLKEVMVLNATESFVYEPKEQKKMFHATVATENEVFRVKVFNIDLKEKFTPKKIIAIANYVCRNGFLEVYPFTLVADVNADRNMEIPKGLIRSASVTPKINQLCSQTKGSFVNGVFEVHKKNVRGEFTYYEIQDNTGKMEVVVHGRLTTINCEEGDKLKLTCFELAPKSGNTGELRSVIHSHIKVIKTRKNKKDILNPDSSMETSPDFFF
FABP5, sequence (Q01469 2-135 limits assumed): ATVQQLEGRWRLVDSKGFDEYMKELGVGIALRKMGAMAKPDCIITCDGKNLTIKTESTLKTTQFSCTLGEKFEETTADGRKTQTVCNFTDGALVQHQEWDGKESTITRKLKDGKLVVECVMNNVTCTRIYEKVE
PCMT1, sequence (P22061 2-227 limits assumed): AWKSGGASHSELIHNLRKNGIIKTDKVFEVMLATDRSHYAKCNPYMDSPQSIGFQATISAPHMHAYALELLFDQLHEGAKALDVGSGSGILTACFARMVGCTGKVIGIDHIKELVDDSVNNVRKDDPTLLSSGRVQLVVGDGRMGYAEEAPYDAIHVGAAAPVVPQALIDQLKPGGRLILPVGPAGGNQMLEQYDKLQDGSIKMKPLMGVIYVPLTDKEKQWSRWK
TECR (human), sequence (Q9NZ01 whole entry): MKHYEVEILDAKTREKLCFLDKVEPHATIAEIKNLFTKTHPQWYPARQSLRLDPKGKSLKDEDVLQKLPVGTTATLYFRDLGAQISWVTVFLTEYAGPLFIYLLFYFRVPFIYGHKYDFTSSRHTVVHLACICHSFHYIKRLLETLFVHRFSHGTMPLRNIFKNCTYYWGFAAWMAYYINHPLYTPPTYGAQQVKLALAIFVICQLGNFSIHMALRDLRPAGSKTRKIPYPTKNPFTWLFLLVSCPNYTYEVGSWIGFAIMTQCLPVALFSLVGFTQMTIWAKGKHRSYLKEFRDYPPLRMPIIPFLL
KPNB1 (human), sequence (Q14974 whole entry): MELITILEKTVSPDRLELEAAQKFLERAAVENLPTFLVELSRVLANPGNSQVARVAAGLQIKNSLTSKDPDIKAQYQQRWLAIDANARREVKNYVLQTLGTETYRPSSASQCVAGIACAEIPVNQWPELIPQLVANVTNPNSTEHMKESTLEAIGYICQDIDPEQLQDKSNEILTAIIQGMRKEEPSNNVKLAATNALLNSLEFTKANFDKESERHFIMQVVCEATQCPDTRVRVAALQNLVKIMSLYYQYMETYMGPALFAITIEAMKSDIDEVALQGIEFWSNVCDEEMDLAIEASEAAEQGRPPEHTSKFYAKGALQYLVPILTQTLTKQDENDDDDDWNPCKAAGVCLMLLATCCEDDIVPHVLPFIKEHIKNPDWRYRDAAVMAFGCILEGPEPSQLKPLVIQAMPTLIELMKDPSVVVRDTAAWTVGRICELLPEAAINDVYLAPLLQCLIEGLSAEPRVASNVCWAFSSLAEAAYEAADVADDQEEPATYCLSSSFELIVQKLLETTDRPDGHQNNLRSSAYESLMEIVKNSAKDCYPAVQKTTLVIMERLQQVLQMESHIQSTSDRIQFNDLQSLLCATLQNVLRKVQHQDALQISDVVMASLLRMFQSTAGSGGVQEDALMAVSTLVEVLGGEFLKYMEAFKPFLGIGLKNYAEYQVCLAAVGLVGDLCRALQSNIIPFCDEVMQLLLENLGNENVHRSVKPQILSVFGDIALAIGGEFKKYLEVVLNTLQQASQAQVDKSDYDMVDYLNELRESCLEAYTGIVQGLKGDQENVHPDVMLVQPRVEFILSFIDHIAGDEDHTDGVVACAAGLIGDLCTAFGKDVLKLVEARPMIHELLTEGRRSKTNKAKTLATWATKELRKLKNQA
RPN1, sequence (P04843 24-607 limits assumed): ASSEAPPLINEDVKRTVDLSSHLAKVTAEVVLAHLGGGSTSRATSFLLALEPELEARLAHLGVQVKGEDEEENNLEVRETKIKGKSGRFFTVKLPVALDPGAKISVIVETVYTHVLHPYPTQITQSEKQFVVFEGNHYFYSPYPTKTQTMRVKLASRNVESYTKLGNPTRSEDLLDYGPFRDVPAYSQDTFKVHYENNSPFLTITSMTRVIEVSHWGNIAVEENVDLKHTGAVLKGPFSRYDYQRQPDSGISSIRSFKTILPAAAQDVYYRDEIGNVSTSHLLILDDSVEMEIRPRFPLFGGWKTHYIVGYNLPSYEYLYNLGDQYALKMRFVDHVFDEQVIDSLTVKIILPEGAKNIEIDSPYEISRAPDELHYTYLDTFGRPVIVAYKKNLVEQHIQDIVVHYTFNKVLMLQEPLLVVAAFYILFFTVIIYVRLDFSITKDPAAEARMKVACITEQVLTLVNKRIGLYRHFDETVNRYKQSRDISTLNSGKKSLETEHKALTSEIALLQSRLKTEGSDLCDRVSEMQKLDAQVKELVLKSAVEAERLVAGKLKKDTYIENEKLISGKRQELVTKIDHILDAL
H1FX (human), sequence (Q92522 2-213 limits assumed): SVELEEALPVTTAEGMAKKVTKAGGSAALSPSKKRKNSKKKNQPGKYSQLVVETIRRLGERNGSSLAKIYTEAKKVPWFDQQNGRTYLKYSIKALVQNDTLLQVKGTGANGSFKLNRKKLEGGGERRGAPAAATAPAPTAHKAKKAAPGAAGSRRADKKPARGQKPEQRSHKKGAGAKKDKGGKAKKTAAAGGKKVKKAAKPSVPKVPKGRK
STRAP, sequence (Q9Y3F4 whole entry): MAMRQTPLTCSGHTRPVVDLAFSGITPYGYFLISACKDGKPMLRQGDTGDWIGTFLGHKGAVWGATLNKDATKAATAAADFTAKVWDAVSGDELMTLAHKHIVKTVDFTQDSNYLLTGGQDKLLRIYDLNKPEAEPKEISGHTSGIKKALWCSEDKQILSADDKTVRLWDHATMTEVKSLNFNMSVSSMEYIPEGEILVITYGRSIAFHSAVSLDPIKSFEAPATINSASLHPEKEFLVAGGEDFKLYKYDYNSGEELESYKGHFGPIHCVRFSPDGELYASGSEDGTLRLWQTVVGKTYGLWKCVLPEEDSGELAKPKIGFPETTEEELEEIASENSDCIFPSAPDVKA

C-terminal FLAG tagged B3GNT2 (from UniProt Q9NY97 1-397) (enzyme)
co-IP mass spectrometry count [1]: 8 | co-IP mass spectrometry count [2]: 4 | co-IP mass spectrometry count [3]: 2 | co-IP mass spectrometry count [4]: 6 | co-IP mass spectrometry count [5]: 6 | co-IP mass spectrometry count [6]: 6 | co-IP mass spectrometry count [7]: 11 | co-IP mass spectrometry count [8]: 7 | co-IP mass spectrometry count [9]: 4 | co-IP mass spectrometry count [10]: 3 | co-IP mass spectrometry count [11]: 2 | co-IP mass spectrometry count [12]: 7 | co-IP mass spectrometry count [13]: 2 | co-IP mass spectrometry count [14]: 5 | co-IP mass spectrometry count [15]: 9 | co-IP mass spectrometry count [16]: 2 | co-IP mass spectrometry count [17]: 5 | co-IP mass spectrometry count [18]: 2 | co-IP mass spectrometry count [19]: 11 | co-IP mass spectrometry count [20]: 2 | co-IP mass spectrometry count [21]: 7 | co-IP mass spectrometry count [22]: 2 | co-IP mass spectrometry count [23]: 2 | co-IP mass spectrometry count [24]: 4 | co-IP mass spectrometry count [25]: 2 | co-IP mass spectrometry count [26]: 9 | co-IP mass spectrometry count [27]: 5 | co-IP mass spectrometry count [28]: 3 | co-IP mass spectrometry count [29]: 0 | co-IP mass spectrometry count [30]: 9 | co-IP mass spectrometry count [31]: 15 | co-IP mass spectrometry count [32]: 2 | co-IP mass spectrometry count [33]: 20 | co-IP mass spectrometry count [34]: 2 | co-IP mass spectrometry count [35]: 2 | co-IP mass spectrometry count [36]: 9 | co-IP mass spectrometry count [37]: 2 | co-IP mass spectrometry count [38]: 63 | co-IP mass spectrometry count [39]: 3
